This is an account of results in paper PMC9600267, “The Antibacterial Type VII Secretion System of Bacillus subtilis: Structure and Interactions of the Pseudokinase YukC/EssB” (mBio, 2022).

The data set concerns the molecule itself. The data set is described as follows: crystal structure; hanging-drop vapor diffusion at 4°C; 20 mg/mL YukC413 in 25 mM HEPES pH 8, 175 mM NaCl, 0.04% Cymal-6 with 0.1 M MgCl2, 50 mM HEPES pH 7.5, 15% PEG 2000; molecular replacement.

B1: YukC413 (YukC lacking the last 38 residues), Strep-tagged (pRSF/yukC413.strep) (domain or fragment, Bacillus subtilis 168, UniProt P71070 1-413, looked up)
chain: MSGEQKSYLENQLEAVAEKTDAGYTFTFQREKIKLLDGLEANVIKDINPFFHKEIDVTDDEVIITIQPPSSYKAFRFMKAKDKKSKWQFAYQLVQAVQQHNLSRLNLIVAPENIVFDKGLTPYFLHYGVKESIPPYERDEERVWQELKAAAALAVDGAFAFEDYLKFNETLTFSAEAKAILDAESYDDLLELIQTHIDELEAKAKTYIHIPRKKWNIQRYIGLGLIVLLVPALIYSMYALFFAQPKHQAIVDSNRAFLNKQYSEVISTLSKYDAESLPESVQYQLATSYVEVENLGSAKTKNIENNLVTLQSDPQHFLYWIDYGRGEYKEAISIGRKLEYNDYIYFALAKYKQQLLSEDTNDEDIQKELDSVNSELEKAQKERQENKQSNSETSLVDTSEEQTQTDEEKQAEE
notes: YukC (EssB) of Bacillus subtilis 168 lacking the last 38 residues at the C terminus; In the model 384 (chain A) and 377 (chain B) residues are assigned; source: E. coli BL21(DE3); purified from Cymal-6-solubilized membranes (StrepTrap, Superdex 200) for crystallization; coexpressed with YukE.his and solubilized with Triton X-100 for copurification
As for B1, the binding result was “binds”.
